# T1: human CD26-derived 13 mer peptide 40 (human)
# T1 peptide: HSYTASYDIYDLN
# T2: human CD26-derived 13 mer peptide 88 (human)
# T2 peptide: FLAYAQFNDTEVP
# T3: human CD26-derived 13 mer peptide 58 (human)
# T3 peptide: HKLAYVWNNDIYV
# T4: human CD26-derived 13 mer peptide 128 (human)
# T4 peptide: DVTWATQERISLQ
# T5: human CD26-derived 13 mer peptide 115 (human)
# T5 peptide: LSSVTNATSIQIT
# T6: human CD26-derived 13 mer peptide 42 (human)
# T6 peptide: ASYDIYDLNKRQL
# T7: human CD26-derived 13 mer peptide 23 (human)
# T7 peptide: NSTFDEFGHSIND
# T8: human CD26-derived 13 mer peptide 80 (human)
# T8 peptide: EVFSAYSALWWSP
# T9: human CD26-derived 13 mer peptide 21 (human)
# T9 peptide: VFLENSTFDEFGH
# T10: human CD26-derived 13 mer peptide 104 (human)
# T10 peptide: VPYPKAGAVNPTV
# T11: human CD26-derived 13 mer peptide 90 (human)
# T11 peptide: AQFNDTEVPLIEY
# T12: human CD26-derived 13 mer peptide 129 (human)
# T12 peptide: TWATQERISLQWL
# T13: human CD26-derived 13 mer peptide 70 (human)
# T13 peptide: TWTGKEDIIYNGI
# T14: human CD26-derived 13 mer peptide 1 (human)
# T14 peptide: YLKNTYRLKLYSL
# T15: human CD26-derived 13 mer peptide 103 (human)
# T15 peptide: VRVPYPKAGAVNP
# T16: human CD26-derived 13 mer peptide 84 (human)
# T16 peptide: LWWSPNGTFLAYA
# T17: human CD26-derived 13 mer peptide 17 (human)
# T17 peptide: NAEYGNSSVFLEN
# T18: human CD26-derived 13 mer peptide 133 (human)
# T18 peptide: SLQWLRRIQNYSV
# T19: human CD26-derived 13 mer peptide 102 (human)
# T19 peptide: KTVRVPYPKAGAV
# T20: human CD26-derived 13 mer peptide 118 (human)
# T20 peptide: ATSIQITAPASML
# T21: human CD26-derived 13 mer peptide 51 (human)
# T21 peptide: IPNNTQWVTWSPV
# T22: human CD26-derived 13 mer peptide 114 (human)
# T22 peptide: DSLSSVTNATSIQ
# T23: human CD26-derived 13 mer peptide 24 (human)
# T23 peptide: TFDEFGHSINDYS
# T24: human CD26-derived 13 mer peptide 92 (human)
# T24 peptide: DTEVPLIEYSFYS
# T25: human CD26-derived 13 mer peptide 14 (human)
# T25 peptide: NNILVFNAEYGNS
# T26: human CD26-derived 13 mer peptide 62 (human)
# T26 peptide: NDIYVKIEPNLPS
# T27: human CD26-derived 13 mer peptide 95 (human)
# T27 peptide: IEYSFYSDESLQY
# T28: human CD26-derived 13 mer peptide 54 (human)
# T28 peptide: WVTWSPVGHKLAY
# T29: human CD26-derived 13 mer peptide 99 (human)
# T29 peptide: ESLQYPKTVRVPY
# T30: human CD26-derived 13 mer peptide 111 (human)
# T30 peptide: FFVVNTDSLSSVT
# T31: human CD26-derived 13 mer peptide 68 (human)
# T31 peptide: SYRITWTGKEDII
# T32: human CD26-derived 13 mer peptide 12 (human)
# T32 peptide: YKQENNILVFNAE
# T33: human CD26-derived 13 mer peptide 20 (human)
# T33 peptide: SSVFLENSTFDEF
# T34: human CD26-derived 13 mer peptide 15 (human)
# T34 peptide: ILVFNAEYGNSSV
# T35: human CD26-derived 13 mer peptide 72 (human)
# T35 peptide: KEDIIYNGITDWV
# T36: human CD26-derived 13 mer peptide 4 (human)
# T36 peptide: RLKLYSLRWISDH
# T37: human CD26-derived 13 mer peptide 52 (human)
# T37 peptide: NNTQWVTWSPVGH
# T38: human CD26-derived 13 mer peptide 81 (human)
# T38 peptide: FSAYSALWWSPNG
# T39: human CD26-derived 13 mer peptide 66 (human)
# T39 peptide: PNLPSYRITWTGK
# T40: human CD26-derived 13 mer peptide 94 (human)
# T40 peptide: PLIEYSFYSDESL
# T41: human CD26-derived 13 mer peptide 7 (human)
# T41 peptide: LRWISDHEYLYKQ
# T42: human CD26-derived 13 mer peptide 106 (human)
# T42 peptide: KAGAVNPTVKFFV
# Tests used:
# Assay in all cases: peptide microarray
# [1] = target: T1, human CD26-derived 13 mer peptide 40
# Experimental: (§1) The overnight incubation was followed by three washings with each of PBS buffer pH 7.5 and water. The microarrays were then scanned using ArrayWorx-Microarray Scanner.
# (§2) The SPOT recognition software package ArrayPro was used for data analysis. The mean of signal intensities from 3 identical subarrays on each microarray image was used for data evaluation.
# [2] = target: T2, human CD26-derived 13 mer peptide 88
# Experimental: as §1, §2
# [3] = target: T3, human CD26-derived 13 mer peptide 58
# Experimental: as §1, §2
# [4] = target: T4, human CD26-derived 13 mer peptide 128
# Experimental: as §1, §2
# [5] = target: T5, human CD26-derived 13 mer peptide 115
# Experimental: as §1, §2
# [6] = target: T6, human CD26-derived 13 mer peptide 42
# Experimental: as §1, §2
# [7] = target: T7, human CD26-derived 13 mer peptide 23
# Experimental: as §1, §2
# [8] = target: T8, human CD26-derived 13 mer peptide 80
# Experimental: as §1, §2
# [9] = target: T9, human CD26-derived 13 mer peptide 21
# Experimental: as §1, §2
# [10] = target: T10, human CD26-derived 13 mer peptide 104
# Experimental: as §1, §2
# [11] = target: T11, human CD26-derived 13 mer peptide 90
# Experimental: as §1, §2
# [12] = target: T12, human CD26-derived 13 mer peptide 129
# Experimental: as §1, §2
# [13] = target: T13, human CD26-derived 13 mer peptide 70
# Experimental: as §1, §2
# [14] = target: T14, human CD26-derived 13 mer peptide 1
# Experimental: as §1, §2
# [15] = target: T15, human CD26-derived 13 mer peptide 103
# Experimental: as §1, §2
# [16] = target: T16, human CD26-derived 13 mer peptide 84
# Experimental: as §1, §2
# [17] = target: T17, human CD26-derived 13 mer peptide 17
# Experimental: as §1, §2
# [18] = target: T18, human CD26-derived 13 mer peptide 133
# Experimental: as §1, §2
# [19] = target: T19, human CD26-derived 13 mer peptide 102
# Experimental: as §1, §2
# [20] = target: T20, human CD26-derived 13 mer peptide 118
# Experimental: as §1, §2
# [21] = target: T21, human CD26-derived 13 mer peptide 51
# Experimental: as §1, §2
# [22] = target: T22, human CD26-derived 13 mer peptide 114
# Experimental: as §1, §2
# [23] = target: T23, human CD26-derived 13 mer peptide 24
# Experimental: as §1, §2
# [24] = target: T24, human CD26-derived 13 mer peptide 92
# Experimental: as §1, §2
# [25] = target: T25, human CD26-derived 13 mer peptide 14
# Experimental: as §1, §2
# [26] = target: T26, human CD26-derived 13 mer peptide 62
# Experimental: as §1, §2
# [27] = target: T27, human CD26-derived 13 mer peptide 95
# Experimental: as §1, §2
# [28] = target: T28, human CD26-derived 13 mer peptide 54
# Experimental: as §1, §2
# [29] = target: T29, human CD26-derived 13 mer peptide 99
# Experimental: as §1, §2
# [30] = target: T30, human CD26-derived 13 mer peptide 111
# Experimental: as §1, §2
# [31] = target: T31, human CD26-derived 13 mer peptide 68
# Experimental: as §1, §2
# [32] = target: T32, human CD26-derived 13 mer peptide 12
# Experimental: as §1, §2
# [33] = target: T33, human CD26-derived 13 mer peptide 20
# Experimental: as §1, §2
# [34] = target: T34, human CD26-derived 13 mer peptide 15
# Experimental: as §1, §2
# [35] = target: T35, human CD26-derived 13 mer peptide 72
# Experimental: as §1, §2
# [36] = target: T36, human CD26-derived 13 mer peptide 4
# Experimental: as §1, §2
# [37] = target: T37, human CD26-derived 13 mer peptide 52
# Experimental: as §1, §2
# [38] = target: T38, human CD26-derived 13 mer peptide 81
# Experimental: as §1, §2
# [39] = target: T39, human CD26-derived 13 mer peptide 66
# Experimental: as §1, §2
# [40] = target: T40, human CD26-derived 13 mer peptide 94
# Experimental: as §1, §2
# [41] = target: T41, human CD26-derived 13 mer peptide 7
# Experimental: as §1, §2
# [42] = target: T42, human CD26-derived 13 mer peptide 106
# Experimental: as §1, §2
binder,measurement,setting,value
"rhuMAb 411 (antibody, human IgG1, kappa, V domains shown, also called X411) VH: EVQLVESGAGVKQPGGTLRLTCTASGFSLTTYGVHWVRQAPGKGLEWVGVIWGDGRTDYDAAFMSRVTISKDTSKSTVYLQMNSLRAEDTAVYYCMRNRHDWFDYWGQGTTVTVSS VL: DILLTQSPSSLSATPGERATITCRASQGIRNNLNWYQQKPGQAPRLLIYYSSNLQSGVPSRFSGSGSGTDFTLTISRLQPEDVAAYYCQQSIKLPFTFGSGTKVEIKR",Mean Signal Value,[1],32.2
same,Mean Signal Value,[2],0
same,Mean Signal Value,[3],33.8
same,Mean Signal Value,[4],0.106
same,Mean Signal Value,[5],0.0673
same,Mean Signal Value,[6],0
same,Mean Signal Value,[7],0.00481
same,Mean Signal Value,[8],17.7
same,Mean Signal Value,[9],0.197
same,Mean Signal Value,[10],0.00481
same,Mean Signal Value,[11],0
same,Mean Signal Value,[12],23.3
same,Mean Signal Value,[13],1
same,Mean Signal Value,[14],3.5
same,Mean Signal Value,[15],0
same,Mean Signal Value,[16],17.2
same,Mean Signal Value,[17],0.0625
same,Mean Signal Value,[18],6.51
same,Mean Signal Value,[19],0.0192
same,Mean Signal Value,[20],0
same,Mean Signal Value,[21],0.856
same,Mean Signal Value,[22],0.00481
same,Mean Signal Value,[23],0.00962
same,Mean Signal Value,[24],11.9
same,Mean Signal Value,[25],0.00962
same,Mean Signal Value,[26],0.00481
same,Mean Signal Value,[27],6.14
same,Mean Signal Value,[28],13
same,Mean Signal Value,[29],0.0865
same,Mean Signal Value,[30],0
same,Mean Signal Value,[31],0
same,Mean Signal Value,[32],0
same,Mean Signal Value,[33],0.0577
same,Mean Signal Value,[34],0
same,Mean Signal Value,[35],10.1
same,Mean Signal Value,[36],51.3
same,Mean Signal Value,[37],0.12
same,Mean Signal Value,[38],35.4
same,Mean Signal Value,[39],0.111
same,Mean Signal Value,[40],0.0433
same,Mean Signal Value,[41],20.6
same,Mean Signal Value,[42],0.245
